The values below come from patent US7326418B2, “Identification of novel factors that block programmed cell death or apoptosis by targeting JNK” (University of Chicago, priority 2001, dated 2008).

To fix the notation:
T1: MKK3b (Homo sapiens, UniProt P46734)
T1 construct: expressed in transfected cells; host or cells: HEK-293; anti-FLAG immunoprecipitate
T1 sequence (P46734 1-347): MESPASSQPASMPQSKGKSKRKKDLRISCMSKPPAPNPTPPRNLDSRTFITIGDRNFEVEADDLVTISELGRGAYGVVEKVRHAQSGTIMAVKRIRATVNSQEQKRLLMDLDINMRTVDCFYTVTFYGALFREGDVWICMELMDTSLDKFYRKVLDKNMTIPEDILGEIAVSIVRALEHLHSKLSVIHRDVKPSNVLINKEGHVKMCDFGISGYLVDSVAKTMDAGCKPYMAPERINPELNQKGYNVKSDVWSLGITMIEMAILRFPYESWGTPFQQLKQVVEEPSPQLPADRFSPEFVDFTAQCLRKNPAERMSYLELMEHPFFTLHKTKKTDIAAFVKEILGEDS

T2: JNKK1/MKK4 (Mus musculus, UniProt P47809)
T2 construct: expressed in transfected cells; host or cells: HEK-293; anti-FLAG immunoprecipitate
T2 sequence (P47809 2-397): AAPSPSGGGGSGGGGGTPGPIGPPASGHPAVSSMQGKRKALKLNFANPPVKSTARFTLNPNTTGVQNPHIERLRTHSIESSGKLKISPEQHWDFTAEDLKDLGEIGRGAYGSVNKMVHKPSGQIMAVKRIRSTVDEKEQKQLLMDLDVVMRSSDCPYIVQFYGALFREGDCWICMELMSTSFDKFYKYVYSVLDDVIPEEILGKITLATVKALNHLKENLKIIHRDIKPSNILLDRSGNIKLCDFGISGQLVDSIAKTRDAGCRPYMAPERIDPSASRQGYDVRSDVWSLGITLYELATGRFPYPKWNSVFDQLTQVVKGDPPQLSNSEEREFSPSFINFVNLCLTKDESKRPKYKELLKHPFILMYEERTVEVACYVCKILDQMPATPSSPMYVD

B1: Gadd45β: purified recombinant His6-tagged Gadd45β protein; also used generically for the recombinant Gadd45β proteins (protein, UniProt O75293 1-160, looked up)
Growth arrest and DNA …: MTLEELVACDNAAQKMQTVTAAVEELLVAAQRQDRLTVGVYESAKLMNVDPDSVVLCLLAIDEEEEDDIALQIHFTLIQSFCCDNDINIVRVSGMQRLAQLLGEPAETQGTTEARDLHCLLVTNPHTDAWKSHGLVEVASYCEESRGNNQWVPYISLQER
modifications: His6 tag
notes: purified recombinant His6-tagged Gadd45β protein; also used generically for the recombinant Gadd45β proteins
B2: His6-Gadd45β: human full-length Gadd45β purified from E. coli as His6-tagged protein (protein, UniProt O75293 1-160, looked up)
chain: B1 Growth arrest and DNA …
modifications: full-length His6 tag
notes: human full-length Gadd45β purified from E. coli as His6-tagged protein
B3: GST-Gadd45β: full-length murine Gadd45β directly fused to GST, purified from E. coli (protein)
chain: MTLEELVASDNAVQKMQAVTAAVEQLLVAAQRQDRLTVGVYEAAKLMNVDPDSVVLCLLAIDEEEEDDIALQIHFTLIQSFCCDNDIDIVRVSGMQRLAQLLGEPAETLGTTEARDLHCLLVTNCHTDSWKSQGLVEVASYCEESRGNNQWVPYISLEER
modifications: left off: a dimerising Fc or GST
notes: full-length murine Gadd45β directly fused to GST, purified from E. coli

One data set has as its target T1, MKK3b. Nature of the data set: Kinase assay of immunoprecipitated FLAG-MKK3b with recombinant Gadd45β proteins. It counts as biochemical. The settings on record: in vitro, even at high concentrations. On the procedure: (§1) Next, the functional consequences, in vitro, of the physical interactions of Gadd45β with kinases in the JNK pathway were assessed. Murine and human, full-length Gadd45J3 proteins were purified from E. coli as GST-Gadd45β and His6-tagged Gadd45β (His6 disclosed as SEQ ID NO: 46), respectively, according to standard procedures. Prior to employing these proteins in in vitro assays, purity of all recombinant polypeptides was assured by >98%, by performing Coomassie blue staining of SDS polyacrylamide gels. Then, the ability of these proteins, as well as of control GST and His6-EF3 (His6 disclosed as SEQ ID NO: 46)proteins, to inhibit kinases in the JNK pathways was monitored in vitro. FLAG-tagged JNKK2, JNKK1, MKK3, and ASK1 were immunoprecipitated from transiently transfected 293 cells using anti-FLAG antibodies and pre-incubated for 10 minutes with increasing concentrations of recombinant proteins, prior to the addition of specific kinase substrates (i.e. GST-JNK1 with JNKK1 and JNKK2; GST-p38[…] with MKK3; GST-JNNK1 or GST-JNKK2 with ASK1). […] These findings indicate that, upon binding to Gadd45β, JNKK2 is effectively inactivated.
(§2) A question was whether Gadd45β inhibited active MKK7, in vitro. FLAG-MKK7 was immunoprecipitated from TNFα-treated or untreated 293 cells, and kinase assays were performed in the presence of purified His6-Gadd45β (His6 disclosed as SEQ ID NO: 46), GST-Gadd45β, or control proteins (FIG. 28d; see also FIG. 28g). […] Consistent with the in vivo findings (FIG. 27), the inhibitory activity of Gadd45β was specific. […] Indeed, the effects of Gadd45β on MKK7 phosphorylation by TNFα may be due inhibition of the MKK7 ability to auto-phoshorylate and/or to serve as substrate for upstream kinases. Altogether, the findings identify MKK7 as a target of Gadd45β, and of NF-[…]B, in the JNK cascade. Of interest, MKK7 is a selective activator of JNK, and its ablation abolishes JNK activation by TNFα. Thus, blockade of MKK7 is sufficient on its own to explain the effects of Gadd45β on JNK signaling—i.e. its specific and near-complete suppression of this signaling. […]
In the case of B1, the “effect on MKK3/MKK3b kinase activity” value is reported as “did not hamper”.

For B2, the “effect on MKK3/MKK3b kinase activity” value is recorded as “neither GST-Gadd45β nor His6-Gadd45β (His6 disclosed as SEQ ID NO: 46) had significant effects”.

As to B3, the “effect on MKK3/MKK3b kinase activity” value is “neither GST-Gadd45β nor His6-Gadd45β (His6 disclosed as SEQ ID NO: 46) had significant effects”.

A further data set has as its target T2, JNKK1/MKK4. Nature of the data set: Kinase assay of immunoprecipitated FLAG-JNKK1/MKK4 with recombinant Gadd45β proteins. It counts as biochemical. The settings on record: in vitro, even at high concentrations. The method, then:
as §1, §2
B1: the “effect on JNKK1/MKK4 kinase activity” value was “did not hamper”.

For B2, the “effect on JNKK1/MKK4 kinase activity” value is listed as “neither GST-Gadd45β nor His6-Gadd45β (His6 disclosed as SEQ ID NO: 46) had significant effects”.

B3: the “effect on JNKK1/MKK4 kinase activity” value is listed as “neither GST-Gadd45β nor His6-Gadd45β (His6 disclosed as SEQ ID NO: 46) had significant effects”.
